Measured values reported in patent publication US20110064726A1 (published 2011).

Key:
[1] = molecular target: T1, cynomolgus monkey IgE (cynomolgus monkey); test: capture ELISA, antibody coated; Test 2, Cyno 1 serum
T1 construct: serum was used as the source of IgE; also called cynomolgus IgE; cyno IgE
Protocol: (§1) Wells were washed once with 150 μL/well wash buffer (0.05% Tween-20, Sigma, Cat. No. P7949/TBS) then blocked with 150 μL/well 1% BSA (Sigma, Cat. No. A7030) in TBS for 2 hours at room temperature. Wells were washed twice with 150 μL wash buffer. 50 μL human (in-house donors) or cynomolgus serum (Harlan Sera-Lab Ltd, Loughborough) was added from neat to at least 1:16 dilution in 1% BSA/0.05% Tween-20/TBS diluent buffer. […] Wells were incubated for 2 hours at 25° C. before washing (3×150 μLwash buffer). […] Wells were incubated for 1 hour at 25° C. then washed (3×150 μL wash buffer). Streptavidin-HRP (Amersham Bioscience, Cat. No. RPN 1231) diluted 1:1000 in diluent buffer was added to all wells and incubated for 45 minutes at room temperature. Wells were washed (3×150 μL wash buffer). […] OPD (Dako, Cat. No. S2045) was added to all wells and the color allowed to develop for 10 minutes before stopping the reaction with 50 μl 0.6M H₂SO₄ and the absorbance measured at 490 nm.

[2] = molecular target: T1, cynomolgus monkey IgE; test: capture ELISA, antibody coated; Test 2, Cyno 2 serum
Protocol: as §1

[3] = molecular target: T1, cynomolgus monkey IgE; test: capture ELISA, antibody coated; Test 2, Cyno 3 serum
Protocol: as §1

[4] = molecular target: T1, cynomolgus monkey IgE; test: capture ELISA, antibody coated; Test 2, Cyno 4 serum
Protocol: as §1

[5] = molecular target: T1, cynomolgus monkey IgE; test: capture ELISA, antibody coated; Test 2, Cyno 5 serum
Protocol: as §1

[6] = molecular target: T1, cynomolgus monkey IgE; test: capture ELISA, antibody coated; Test 2, Cyno 6 serum
Protocol: as §1

[7] = molecular target: T1, cynomolgus monkey IgE; test: capture ELISA, antibody coated; Test 2, Cyno 7 serum
Protocol: as §1

[8] = molecular target: T1, cynomolgus monkey IgE; test: capture ELISA, antibody coated; Test 2, Cyno 8 serum
Protocol: as §1

[9] = molecular target: T2, human IgE (full length human immunoglobulin E) (human, UniProt P01854 1-546); test: ELISA, immunoglobulin coated at 4 µg/mL, anti-human IgG2 detection
Protocol: (§2) Wells were washed 3× with 150 μL wash buffer (0.05% Tween-20 (Sigma, Cat. No. P7949)/PBS) then blocked with 150 μL/well blocking buffer (2.5% BSA (Sigma, Cat. No. A7030)/PBS) for 2 hours at room temperature. Wells were washed 3× with 150 μL wash buffer/well. […] Antibodies were diluted in diluent buffer (PBS/1% BSA/0.05% Tween-20) and this was added to blank control wells (duplicate wells for each secondary antibody used). Antibodies were incubated for 2 hours at room temperature. Wells were washed 3× with 150 μL wash buffer/well. Binding of control antibodies to immunoglobulin was detected with anti-mouse IgG-HRP conjugate (Sigma, Cat. No. A4416) diluted 1:8000 in diluent buffer. 50 μL/well was added to control antibody and blank wells. Wells were incubated for 1 hour at room temperature, then washed 3× with 150 μL wash buffer/well. 50 μl OPD (Dako, Cat. No. […] Wells were incubated for 1 hour at room temperature then washed 3× with 150 μL wash buffer/well. Streptavidin-HRP (Amersham Bioscience, Cat. No. RPN 1231) diluted 1:2000 in diluent buffer was added to all wells and incubated for 45 minutes at room temperature. Wells were washed (3×150 μL wash buffer).

[10] = molecular target: T3, human IgA (human); test: as above
T3 construct: bought preparation coated on the ELISA plate
Protocol: as §2

[11] = molecular target: T4, human IgG1 (human, UniProt P01857-1 1-330 = IgG part); test: as above
T4 construct: bought preparation coated on the ELISA plate; not shown: bought immunoglobulin, light chain not described
Protocol: as §2

[12] = molecular target: T5, human IgG3 (human, UniProt P01860-1 1-377); test: as above
T5 construct: bought preparation coated on the ELISA plate; not shown: bought immunoglobulin, light chain not described
Protocol: as §2

[13] = molecular target: T2, human IgE (full length human …); test: serum free IgE depletion ELISA; DIN 0155, initial free IgE 93 ng/mL
[14] = molecular target: T2, human IgE (full length human …); test: serum free IgE depletion ELISA; DIN 0461, initial free IgE 80 ng/mL
[15] = molecular target: T2, human IgE (full length human …); test: serum free IgE depletion ELISA; DIN 0649, initial free IgE 93 ng/mL
[16] = molecular target: T2, human IgE (full length human …); test: serum free IgE depletion ELISA; DIN 0347, initial free IgE 221 ng/mL
[17] = molecular target: T2, human IgE (full length human …); test: serum free IgE depletion ELISA; DIN 0591, initial free IgE 152 ng/mL
[18] = molecular target: T2, human IgE (full length human …); test: serum free IgE depletion ELISA; DIN 0011 experiment 2, initial free IgE 326 ng/mL
[19] = molecular target: T2, human IgE (full length human …); test: serum free IgE depletion ELISA; DIN 0321 experiment 2, initial free IgE 265 ng/mL
[20] = molecular target: T2, human IgE (full length human …); test: serum free IgE depletion ELISA; DIN 0451 experiment 2, initial free IgE 534 ng/mL
[21] = molecular target: T2, human IgE (full length human …); test: serum free IgE depletion ELISA; DIN 0623 experiment 2, initial free IgE 133 ng/mL
[22] = molecular target: T2, human IgE (full length human …); test: serum free IgE depletion ELISA; DIN 0632 experiment 2, initial free IgE 289 ng/mL
[23] = molecular target: T1, cynomolgus monkey IgE; test: capture ELISA, antibody coated; Test 1, Cyno 1 serum
Protocol: as §1

[24] = molecular target: T1, cynomolgus monkey IgE; test: capture ELISA, antibody coated; Test 1, Cyno 2 serum
Protocol: as §1

[25] = molecular target: T1, cynomolgus monkey IgE; test: capture ELISA, antibody coated; Test 1, Cyno 4 serum
Protocol: as §1

[26] = molecular target: T1, cynomolgus monkey IgE; test: capture ELISA, antibody coated; Test 1, Cyno 5 serum
Protocol: as §1

[27] = molecular target: T1, cynomolgus monkey IgE; test: capture ELISA, antibody coated; Test 1, Cyno 6 serum
Protocol: as §1

[28] = molecular target: T1, cynomolgus monkey IgE; test: capture ELISA, antibody coated; Test 1, Cyno 7 serum
Protocol: as §1

[29] = molecular target: T1, cynomolgus monkey IgE; test: capture ELISA, antibody coated; Test 1, Cyno 3 serum
Protocol: as §1

T5 sequence (P01860 other isoform, or with tags, fused parts or gaps): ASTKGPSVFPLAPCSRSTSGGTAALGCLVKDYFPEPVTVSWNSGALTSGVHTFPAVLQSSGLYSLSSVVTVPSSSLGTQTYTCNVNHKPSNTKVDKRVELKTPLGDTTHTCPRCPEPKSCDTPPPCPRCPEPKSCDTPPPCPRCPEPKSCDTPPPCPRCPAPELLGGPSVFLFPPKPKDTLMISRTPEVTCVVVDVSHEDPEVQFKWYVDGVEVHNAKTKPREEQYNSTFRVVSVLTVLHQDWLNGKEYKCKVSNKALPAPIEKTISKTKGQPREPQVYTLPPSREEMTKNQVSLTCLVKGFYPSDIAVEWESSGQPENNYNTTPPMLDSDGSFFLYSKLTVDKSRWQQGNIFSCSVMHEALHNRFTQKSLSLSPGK
T2 sequence (P01854 whole entry): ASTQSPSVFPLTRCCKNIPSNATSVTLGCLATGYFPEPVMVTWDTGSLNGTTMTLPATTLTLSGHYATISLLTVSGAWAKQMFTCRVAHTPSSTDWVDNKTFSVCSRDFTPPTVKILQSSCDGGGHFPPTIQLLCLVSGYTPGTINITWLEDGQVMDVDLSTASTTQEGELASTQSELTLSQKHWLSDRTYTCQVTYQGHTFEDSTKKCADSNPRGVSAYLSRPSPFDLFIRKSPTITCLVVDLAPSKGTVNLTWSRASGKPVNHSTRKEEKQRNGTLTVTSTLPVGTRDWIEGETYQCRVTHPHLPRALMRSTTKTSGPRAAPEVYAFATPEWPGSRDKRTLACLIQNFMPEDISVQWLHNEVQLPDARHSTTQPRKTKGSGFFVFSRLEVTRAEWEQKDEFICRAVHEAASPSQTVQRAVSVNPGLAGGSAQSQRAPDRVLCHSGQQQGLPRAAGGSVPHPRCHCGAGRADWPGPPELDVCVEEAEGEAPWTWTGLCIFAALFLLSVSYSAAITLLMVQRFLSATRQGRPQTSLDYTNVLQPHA
T4 sequence (P01857 other isoform, or with tags, fused parts or gaps): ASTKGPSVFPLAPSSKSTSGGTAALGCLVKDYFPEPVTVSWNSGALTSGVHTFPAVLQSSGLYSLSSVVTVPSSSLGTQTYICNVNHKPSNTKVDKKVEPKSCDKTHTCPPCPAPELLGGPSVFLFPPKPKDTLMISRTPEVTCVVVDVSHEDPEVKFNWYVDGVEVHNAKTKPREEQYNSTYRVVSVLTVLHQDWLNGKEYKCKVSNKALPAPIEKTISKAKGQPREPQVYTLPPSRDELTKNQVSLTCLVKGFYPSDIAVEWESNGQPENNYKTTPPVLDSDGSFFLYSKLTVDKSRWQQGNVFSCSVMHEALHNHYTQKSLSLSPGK

Row | Binder | IgE concentration detected [1] [ng/mL] | IgE concentration detected [2] [ng/mL] | IgE concentration detected [3] [ng/mL] | IgE concentration detected [4] [ng/mL] | IgE concentration detected [5] [ng/mL] | IgE concentration detected [6] [ng/mL] | IgE concentration detected [7] [ng/mL] | IgE concentration detected [8] [ng/mL] | A290 nm [10] [absorbance] | A290 nm [11] [absorbance] | A290 nm [12] [absorbance] | IgE concentration detected [23] [ng/mL] | IgE concentration detected [24] [ng/mL] | IgE concentration detected [25] [ng/mL] | IgE concentration detected [26] [ng/mL] | IgE concentration detected [27] [ng/mL] | IgE concentration detected [28] [ng/mL] | IgE concentration detected [29] [ng/mL] | further results
1 | 5.948.1 Hc-H100Y (antibody, human IgG2, kappa, V domains shown, human IgG2 kappa; the heavy chain entry already holds H100Y; also called 5.948.1 H100Y; 5.948.1 (H100Y)) VH: QVQLVQSGAEVKKPGASVKVSCKASGYTFTSYDINWVRQATGQGLEWMGWMDPNSGNTGYAQKFQGRVTMTRNTSISTAYMELSSLRSEDTAVYYCARGYYDSDGYYSFSGMDVWGQGTTVTVSS VL: not shown | 170 | 199 | 178 | 25 | 420 | 39 | 0 | 36 | 0.05 | 0.06 | 0.06 |  |  |  |  |  |  |  | A290 nm [9]: 1.05 absorbance; IC25ng/mL [13]: 0.34 µg/mL; IC25ng/mL [14]: 0.34 µg/mL; IC25ng/mL [15]: 0.39 µg/mL; IC25ng/mL [16]: 1.33 µg/mL; IC25ng/mL [17]: 0.55 µg/mL; IC25ng/mL [18]: 2.96 µg/mL; IC25ng/mL [19]: 2.55 µg/mL; IC25ng/mL [20]: 10.5 µg/mL; IC25ng/mL [21]: 0.76 µg/mL; IC25ng/mL [22]: 2.29 µg/mL
2 | recombinant 5.396.1 (antibody, human IgG2, kappa, V domains shown, human IgG2 kappa, expressed in 293 Freestyle cells; also called 5.396.1 (recombinant)) VH: QVQLQQWGAGLLKPSETLSLTCAVYGGSFSGYYWSWIRQPPGKGLEWIGEIHHSGSTNYNPSLKSRVTISVDTSKNQFSLKLSSVTAADTAVYYCARDNWNDSFYYYYGMDVWGQGTTVTVSS VL: DIQMTQSPSSLSASVGDRVTITCRASQGISNHLAWFQQKPGKAPKSLIYAASSLQSGVPSKFSGSGSGTDFTLTISSLQPEDFATYYCQQYNRHPFTFGPGTKVDIKR |  |  |  |  |  |  |  |  | 0.04 | 0.07 | 0.05 | 30 | 0 | 0 | 37 | 3 | 0 |  | 
3 | 5.396.1 Hc-S103N Lc-K61R (antibody, human IgG2, kappa, V domains shown, human IgG2 kappa; the entries already hold the substitutions S103N (Hc) and K61R (Lc); also called 5.396.1 (S103N/K61R); 5.396.1 N/R) VH: QVQLQQWGAGLLKPSETLSLTCAVYGGSFSGYYWSWIRQPPGKGLEWIGEIHHSGSTNYNPSLKSRVTISVDTSKNQFSLKLSSVTAADTAVYYCARDNWNDNFYYYYGMDVWGQGTTVTVSS VL: DIQMTQSPSSLSASVGDRVTITCRASQGISNHLAWFQQKPGKAPKSLIYAASSLQSGVPSRFSGSGSGTDFTLTISSLQPEDFATYYCQQYNRHPFTFGPGTKVDIKR | 57 | 39 | 53 | 0 | 102 | 0 | 0 | 0 | 0.04 | 0.08 | 0.05 | 41 | 0 | 0 | 57 | 0 | 0 | 39 | 
4 | recombinant 6.605.1 (antibody, human IgG2, kappa, V domains shown, human IgG2 kappa; also called 6.605.1 (recombinant)) VH: QVHLVQSGAEVKMPGASVKVSCKASGYTFTSYGISWVRQAPGQGLEWMGWISAYNGNTNYAQKLQGRITMTTDTSTSTAYMDLRSLRSDDTAVYYCARDGDYYDPFDYWGQGTLVTVSS VL: DIQMTQSPSSLSASVGDRVTITCRTSQSISNWLNWYQQKPGKAPKLLIYGASTLKSGVPSRFSGSESGTDFTLTISSLQPEDFATYYCQQSYSTPPTFGQGTKVEIKR |  |  |  |  |  |  |  |  | 0.04 | 0.07 | 0.05 | 120 | 91 | 0 | 140 | 0 | 0 | 107 | 
5 | 6.605.1 Hc-H3Q,M13K,D82E Lc-T25A,T53S (antibody, human IgG2, kappa, V domains shown, human IgG2 kappa; the entries already hold the substitutions; also called 6.605.1 (H3Q,M13K,D82E-T25A,T53S); 6.605.1 QKE/AS) VH: QVQLVQSGAEVKKPGASVKVSCKASGYTFTSYGISWVRQAPGQGLEWMGWISAYNGNTNYAQKLQGRITMTTDTSTSTAYMELRSLRSDDTAVYYCARDGDYYDPFDYWGQGTLVTVSS VL: DIQMTQSPSSLSASVGDRVTITCRASQSISNWLNWYQQKPGKAPKLLIYGASSLKSGVPSRFSGSESGTDFTLTISSLQPEDFATYYCQQSYSTPPTFGQGTKVEIKR |  |  |  |  |  |  |  |  | 0.04 | 0.07 | 0.04 | 133 | 103 | 0 | 173 |  | 0 | 122 | 
